Reference: US12692294B2, “Engineered NRG-1 variants with improved selectivity toward ErbB4 but not against ErbB3” (Amgen Inc., priority 2021, dated 2026)

What was measured:
ErbB4 = molecular target: T1, ErbB4 (Rattus norvegicus, UniProt Q62956); assay: In vitro phosphorylation of Akt in neonatal rat cardiomyocytes; type: cell-based; conditions: for EC50: Akt (Serine 473) phosphorylation, neonatal rat cardiomyocytes, 15 minutes treatment, read-out: Cardiomyocyte (CM) (ErbB4) Avg EC50; for Selectivity SC/CM: ratio of EC50s Schwann cells/cardiomyocytes; for CM % Agonism AVG: top value of the Akt phosphorylation data points in cardiomyocytes, wild-type control 100
T1 construct: forming the ErbB2/ErbB4 complex in cardiomyocytes and the ErbB2/ErbB3 complex in Schwann cells; endogenous in cells; host or cells: primary neonatal rat cardiomyocytes (Sprague Dawley pups, 0 to 4 days old)
T1 sequence (Q62956 26-1308): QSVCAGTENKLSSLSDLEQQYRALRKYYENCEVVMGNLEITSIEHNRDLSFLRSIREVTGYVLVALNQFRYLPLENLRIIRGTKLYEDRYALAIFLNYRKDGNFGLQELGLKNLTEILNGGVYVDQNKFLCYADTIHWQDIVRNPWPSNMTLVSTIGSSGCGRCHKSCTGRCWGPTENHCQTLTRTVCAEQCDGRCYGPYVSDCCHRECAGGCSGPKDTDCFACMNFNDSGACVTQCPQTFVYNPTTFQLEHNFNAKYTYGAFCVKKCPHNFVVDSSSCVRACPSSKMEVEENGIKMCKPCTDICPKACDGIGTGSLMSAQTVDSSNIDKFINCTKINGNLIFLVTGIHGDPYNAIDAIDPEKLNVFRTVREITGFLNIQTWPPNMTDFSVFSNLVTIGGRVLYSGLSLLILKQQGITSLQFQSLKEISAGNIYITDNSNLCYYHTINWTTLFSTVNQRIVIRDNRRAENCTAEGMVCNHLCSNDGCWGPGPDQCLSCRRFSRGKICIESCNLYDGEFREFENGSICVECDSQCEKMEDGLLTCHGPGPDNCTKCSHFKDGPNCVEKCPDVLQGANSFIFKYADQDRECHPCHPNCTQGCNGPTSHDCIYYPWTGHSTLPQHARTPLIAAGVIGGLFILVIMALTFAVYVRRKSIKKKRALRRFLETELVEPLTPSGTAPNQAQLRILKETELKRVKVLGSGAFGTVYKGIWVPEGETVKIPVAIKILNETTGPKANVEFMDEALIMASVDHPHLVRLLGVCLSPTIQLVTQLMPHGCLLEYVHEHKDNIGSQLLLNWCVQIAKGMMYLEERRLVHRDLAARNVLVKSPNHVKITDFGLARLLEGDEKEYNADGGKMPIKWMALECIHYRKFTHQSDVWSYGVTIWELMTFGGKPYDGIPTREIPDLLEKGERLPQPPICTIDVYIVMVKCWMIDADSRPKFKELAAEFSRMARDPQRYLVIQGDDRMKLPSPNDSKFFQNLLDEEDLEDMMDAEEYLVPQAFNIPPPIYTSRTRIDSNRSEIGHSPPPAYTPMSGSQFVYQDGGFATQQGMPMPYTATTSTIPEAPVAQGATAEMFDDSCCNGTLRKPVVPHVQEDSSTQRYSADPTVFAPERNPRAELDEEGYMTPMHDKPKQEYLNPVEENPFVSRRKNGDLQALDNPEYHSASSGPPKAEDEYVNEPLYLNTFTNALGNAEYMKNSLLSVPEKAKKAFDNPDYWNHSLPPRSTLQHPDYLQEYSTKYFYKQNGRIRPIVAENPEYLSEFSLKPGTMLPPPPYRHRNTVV
T1 sequence (P06494 23-1257 partner): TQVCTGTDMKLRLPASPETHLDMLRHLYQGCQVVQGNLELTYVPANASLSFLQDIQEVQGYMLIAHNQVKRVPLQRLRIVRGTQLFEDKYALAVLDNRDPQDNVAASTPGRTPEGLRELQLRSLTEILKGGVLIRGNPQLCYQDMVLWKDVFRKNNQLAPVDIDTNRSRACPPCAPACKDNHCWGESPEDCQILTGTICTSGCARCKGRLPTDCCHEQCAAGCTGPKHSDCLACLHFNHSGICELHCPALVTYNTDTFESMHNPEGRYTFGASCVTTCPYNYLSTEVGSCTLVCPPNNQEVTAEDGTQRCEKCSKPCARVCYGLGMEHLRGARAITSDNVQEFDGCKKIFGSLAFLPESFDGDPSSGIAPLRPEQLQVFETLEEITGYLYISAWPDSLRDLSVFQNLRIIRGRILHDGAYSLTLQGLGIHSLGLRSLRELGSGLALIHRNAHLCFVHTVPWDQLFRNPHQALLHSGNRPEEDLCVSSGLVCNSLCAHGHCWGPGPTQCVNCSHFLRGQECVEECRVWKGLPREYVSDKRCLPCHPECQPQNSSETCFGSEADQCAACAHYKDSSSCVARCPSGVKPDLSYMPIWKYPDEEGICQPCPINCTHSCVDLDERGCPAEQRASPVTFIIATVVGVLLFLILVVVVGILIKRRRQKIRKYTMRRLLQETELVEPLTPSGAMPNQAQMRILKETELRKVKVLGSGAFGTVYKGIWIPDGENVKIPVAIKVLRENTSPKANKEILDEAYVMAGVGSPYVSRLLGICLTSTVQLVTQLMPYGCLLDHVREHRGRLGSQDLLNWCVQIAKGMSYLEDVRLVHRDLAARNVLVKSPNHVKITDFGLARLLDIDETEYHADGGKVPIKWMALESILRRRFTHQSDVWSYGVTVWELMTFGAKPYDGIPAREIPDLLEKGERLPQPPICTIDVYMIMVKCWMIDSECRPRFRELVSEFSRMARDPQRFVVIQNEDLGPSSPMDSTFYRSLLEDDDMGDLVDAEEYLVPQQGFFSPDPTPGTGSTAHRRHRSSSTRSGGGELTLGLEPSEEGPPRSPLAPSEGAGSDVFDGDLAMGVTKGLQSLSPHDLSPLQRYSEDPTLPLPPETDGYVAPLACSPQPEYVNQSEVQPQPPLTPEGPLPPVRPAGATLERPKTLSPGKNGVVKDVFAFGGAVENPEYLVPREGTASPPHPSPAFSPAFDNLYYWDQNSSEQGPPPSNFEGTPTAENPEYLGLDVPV
Procedure: (§1) In Vitro Phosphorylation of Akt in Neonatal Rat Cardiomyocytes and Rat Schwann Cells by Neuregulin Variants
(§2) Specificity of neuregulin variants towards cardiomyocytes (ErbB4) versus Schwann cells (ErbB3) was tested by measuring Akt activity generated by formation of the ErbB2/ErbB4 and ErbB2/ErbB3 complexes. Upon activation by neuregulin, the ErbB4 and ErbB3 receptors dimerize preferentially with the ErbB2 co-receptor, forming the ErbB2/ErbB4 complex in cardiomyocytes and the ErbB2/ErbB3 complex in Schwann cells, both of which signal through the Akt pathway. Neonatal rat cardiomyocytes were isolated from hearts of Sprague Dawley rat pups at 0 to 4 days old according to manufacturer's protocol using the Neomyt kit and plated on Surecoat plates in NS media containing serum (all from Cellultron Life Technologies, Baltimore, MD). Rat Schwann cells were plated in Poly-D-Lysine coated plates with Dulbecco's modified Eagle's media (DMEM) supplemented with fetal bovine serum (Thermo Fisher) and forskolin (Millipore Sigma).
(§3) After a 24-hour incubation in a humidified incubator maintained at 37° C. and 5% CO2, cardiomyocytes and Schwann cells were washed with serum free media and incubated an additional 16 hours in DMEM supplemented with bovine serum albumin (Sigma). Both cell lines were then treated with titrations of the neuregulin variant molecules for 15 minutes, upon which cells were lysed in lysis buffer (Meso Scale Discovery (MSD)). For detection of Akt phosphorylation, lysates were added to the Multi-Spot 96-Well 4-Spot Phospho (Serine 473)/Total Akt plates (MSD), incubated according to the manufacturer's protocol and read in the SECTOR Imager 6000 (MSD). For both cell assays, the percent phosphorylation of Akt was calculated by multiplying the phospho Akt signal by 2, then dividing by the phospho Akt signal added to the total Akt signal and then multiplying by 100. The phosphorylation of Akt data points were fitted using a log (agonist) versus response, variable slope (4 parameters) analysis in GraphPad Prism to generate EC50 curves. The CM % agonism reflect the top value of the data points.

ErbB3 = molecular target: T2, ErbB3 (Rattus norvegicus, UniProt Q62799); assay: In vitro phosphorylation of Akt in rat Schwann cells; type: cell-based; conditions: Akt (Serine 473) phosphorylation, 15 minutes treatment, read-out: Schwann cells (SC) (ErbB3) Avg EC50
T2 construct: forming the ErbB2/ErbB4 complex in cardiomyocytes and the ErbB2/ErbB3 complex in Schwann cells; endogenous in cells; host or cells: rat Schwann cells
T2 sequence (Q62799 20-1339): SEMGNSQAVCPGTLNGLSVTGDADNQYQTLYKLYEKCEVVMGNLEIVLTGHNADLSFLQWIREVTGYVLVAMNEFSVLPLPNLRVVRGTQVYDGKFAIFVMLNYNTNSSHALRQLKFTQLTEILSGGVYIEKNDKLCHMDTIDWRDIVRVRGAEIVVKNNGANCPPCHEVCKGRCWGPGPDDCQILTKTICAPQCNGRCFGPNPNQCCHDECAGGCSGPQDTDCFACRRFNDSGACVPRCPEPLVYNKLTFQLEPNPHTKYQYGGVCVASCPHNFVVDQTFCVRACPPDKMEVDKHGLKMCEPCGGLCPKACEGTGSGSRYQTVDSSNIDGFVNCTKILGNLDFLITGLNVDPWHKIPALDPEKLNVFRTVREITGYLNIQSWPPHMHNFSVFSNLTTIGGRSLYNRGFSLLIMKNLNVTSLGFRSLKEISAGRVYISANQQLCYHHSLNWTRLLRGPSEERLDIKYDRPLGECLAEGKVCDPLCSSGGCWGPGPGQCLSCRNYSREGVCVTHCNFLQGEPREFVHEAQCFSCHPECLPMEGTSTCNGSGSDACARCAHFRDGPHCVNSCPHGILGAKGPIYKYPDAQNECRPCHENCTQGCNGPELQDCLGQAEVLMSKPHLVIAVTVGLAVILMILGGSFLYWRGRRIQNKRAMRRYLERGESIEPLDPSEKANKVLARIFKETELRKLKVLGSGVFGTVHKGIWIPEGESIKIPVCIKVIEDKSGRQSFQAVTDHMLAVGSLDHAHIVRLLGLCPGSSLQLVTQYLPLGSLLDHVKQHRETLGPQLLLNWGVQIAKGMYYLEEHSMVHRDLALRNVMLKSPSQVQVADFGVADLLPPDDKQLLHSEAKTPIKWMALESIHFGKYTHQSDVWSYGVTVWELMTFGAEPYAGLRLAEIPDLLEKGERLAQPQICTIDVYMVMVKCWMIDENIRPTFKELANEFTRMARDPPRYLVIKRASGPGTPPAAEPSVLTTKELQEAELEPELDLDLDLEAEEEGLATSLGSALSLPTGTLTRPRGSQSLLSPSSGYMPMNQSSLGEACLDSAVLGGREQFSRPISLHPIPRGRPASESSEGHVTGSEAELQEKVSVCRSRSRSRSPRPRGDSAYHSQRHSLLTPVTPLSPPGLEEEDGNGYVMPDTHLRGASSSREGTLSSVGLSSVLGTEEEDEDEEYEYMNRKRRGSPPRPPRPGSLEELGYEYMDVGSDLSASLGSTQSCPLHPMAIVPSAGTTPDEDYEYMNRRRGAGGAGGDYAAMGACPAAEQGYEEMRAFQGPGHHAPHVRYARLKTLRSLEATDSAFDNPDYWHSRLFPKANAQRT
T2 sequence (P06494 23-1257 partner): as the sequence (P06494 23-1257 partner) above
Procedure: as §1, §2, §3

Row | EC50 (ErbB4) | Selectivity SC/CM (ErbB4) | CM % Agonism AVG (ErbB4) | EC50 (ErbB3) | Molecule
1 | 0.587 nM | 6.165 | 97.51% | 3.62 nM | huNRG1(S177-F229) 6xHis: 6xHis-tagged NRG1 fragment S177-F229 without variant mutations (protein, 6xHis tag; huNRG1(S177-F229) 6xHis, 6xHis-tagged NRG1 fragment S177-F229 without variant mutations) SHLVKCAEKEKTFCVNGGECFMVKDLSNPSRYLCKCPNEFTGDRCQNYVMASFGGGGEGGGGAGGGGHHHHHH
2 | 1.44 nM | >10000 | 106% | 10000 nM | huNRG1(S177-F229)(NRGE1C) 6xHis: 6xHis-tagged NRG1 variant SEQ ID NO:117 (protein, 6xHis tag; huNRG1(S177-F229)(NRGE1C) 6xHis) SHLVKCGEKHKSFCVNGGECFMIEGPSNPSRYLCKCPNEFTGDRCQEDFMASFGGGGEGGGGAGGGGHHHHHH
3 | 0.311 nM | 55.4019 | 91.65% | 17.2 nM | huNRG1(S177-F229)(NRGE1D) (E47K_D48L_F49D_M50I) 6xHis: 6xHis-tagged NRG1 variant SEQ ID NO:127 (protein, 6xHis tag; huNRG1(S177-F229)(NRGE1D) (E47K_D48L_F49D_M50I) 6xHis) SHLVKCGESHKSFCVNGGECYMVEGSSIPSRYLCKCPNEFTGDRCQKLDIASFGGGGEGGGGAGGGGHHHHHH
4 | 0.39 nM | >10000 | 90.65% | 10000 nM | huNRG1(S177-F229)(NRGE1D) 6xHis: 6xHis-tagged NRG1 variant SEQ ID NO:126 (protein, 6xHis tag; huNRG1(S177-F229)(NRGE1D) 6xHis) SHLVKCGESHKSFCVNGGECYMVEGSSIPSRYLCKCPNEFTGDRCQEDFMASFGGGGEGGGGAGGGGHHHHHH
5 | 1.1 nM | >10000 | 96.47% | 10000 nM | huNRG1(S177-F229)(NRGE1C) (E47A_D48P_F49H_M50I) 6xHis: 6xHis-tagged NRG1 variant SEQ ID NO:119 (protein, 6xHis tag; huNRG1(S177-F229)(NRGE1C) (E47A_D48P_F49H_M50I) 6xHis) SHLVKCGEKHKSFCVNGGECFMIEGPSNPSRYLCKCPNEFTGDRCQAPHIASFGGGGEGGGGAGGGGHHHHHH
6 | 0.825 nM | >10000 | 91.82% | 10000 nM | huNRG1(S177-F229)(NRGE1C) (E47K_D48T_F49S_M50L) 6xHis: 6xHis-tagged NRG1 variant SEQ ID NO:120 (protein, 6xHis tag; huNRG1(S177-F229)(NRGE1C) (E47K_D48T_F49S_M50L) 6xHis) SHLVKCGEKHKSFCVNGGECFMIEGPSNPSRYLCKCPNEFTGDRCQKTSLASFGGGGEGGGGAGGGGHHHHHH
7 | 0.33 nM | >10000 | 99.83% | 10000 nM | huNRG1(S177-F229)(NRGE1D) (E47T_D48S_F49L_M50L) 6xHis: 6xHis-tagged NRG1 variant SEQ ID NO:129 (protein, 6xHis tag; huNRG1(S177-F229)(NRGE1D) (E47T_D48S_F49L_M50L) 6xHis) SHLVKCGESHKSFCVNGGECYMVEGSSIPSRYLCKCPNEFTGDRCQTSLLASFGGGGEGGGGAGGGGHHHHHH
8 | 0.695 nM | >10000 | 85.89% | 10000 nM | huNRG1(S177-F229)(NRGE1C) (E47S_D48A_F49L_M50T) 6xHis: 6xHis-tagged NRG1 variant SEQ ID NO:122; ErbB4 selective agonist without Fc of Example 3 (protein, 6xHis tag; huNRG1(S177-F229)(NRGE1C) (E47S_D48A_F49L_M50T) 6xHis) SHLVKCGEKHKSFCVNGGECFMIEGPSNPSRYLCKCPNEFTGDRCQSALTASFGGGGEGGGGAGGGGHHHHHH
9 | 0.224 nM | >10000 | 97.95% | 10000 nM | huNRG1(S177-F229)(NRGE1D) (E47V_D48T_F49R_M50L) 6xHis: 6xHis-tagged NRG1 variant SEQ ID NO:130 (protein, 6xHis tag; huNRG1(S177-F229)(NRGE1D) (E47V_D48T_F49R_M50L) 6xHis) SHLVKCGESHKSFCVNGGECYMVEGSSIPSRYLCKCPNEFTGDRCQVTRLASFGGGGEGGGGAGGGGHHHHHH
10 | 0.557 nM | >10000 | 96.05% | 10000 nM | huNRG1(S177-F229)(NRGE1D) (E47S_D48S_F49E_M50L) 6xHis: 6xHis-tagged NRG1 variant SEQ ID NO:128 (protein, 6xHis tag; huNRG1(S177-F229)(NRGE1D) (E47S_D48S_F49E_M50L) 6xHis) SHLVKCGESHKSFCVNGGECYMVEGSSIPSRYLCKCPNEFTGDRCQSSELASFGGGGEGGGGAGGGGHHHHHH
11 | 0.712 nM | >10000 | 105.7% | 10000 nM | huNRG1(S177-F229)(NRGE1C) (D48T_F49Q_M50I) 6xHis: 6xHis-tagged NRG1 variant SEQ ID NO:118 (protein, 6xHis tag; huNRG1(S177-F229)(NRGE1C) (D48T_F49Q_M50I) 6xHis) SHLVKCGEKHKSFCVNGGECFMIEGPSNPSRYLCKCPNEFTGDRCQETQIASFGGGGEGGGGAGGGGHHHHHH
12 | 0.58 nM | >10000 | 87.47% | 10000 nM | huNRG1(S177-F229)(NRGE1C) (E47S_D48T_F49R_M50V) 6xHis: 6xHis-tagged NRG1 variant SEQ ID NO:123 (protein, 6xHis tag; huNRG1(S177-F229)(NRGE1C) (E47S_D48T_F49R_M50V) 6xHis) SHLVKCGEKHKSFCVNGGECFMIEGPSNPSRYLCKCPNEFTGDRCQSTRVASFGGGGEGGGGAGGGGHHHHHH
13 | 14.8 nM | 53 | – | 783 nM | huNRG1(S177-S228)(NRGE1C)::3x(G4Q)::huFcSEFL2 (Pb): Fc fusion of NRG1 variant SEQ ID NO:116 (protein, huNRG1(S177-S228)(NRGE1C)::3x(G4Q)::huFcSEFL2 (Pb)) STYRCVSVLTVLHQDWLNGKEYKCKVSNKALPAPIEKTISKAKGQPREPQVYTLPPSREEMTKNQVSLTCLVKGFYPSDIAVEWESNGQPENNYKTTPPVLDSDGSFFLYSKLTVDKSRWQQGNVFSCSVMHEALHNHYTQKSLSLSPGK
14 | 2.6 nM | 0.03 | – | 0.07 nM | huNRG1(S177-S228)(wt)::3x(G4Q)::huFcSEFL2 (Pb): Fc fusion of wild-type NRG1 fragment S177-S228 (protein, huNRG1(S177-S228)(wt)::3x(G4Q)::huFcSEFL2 (Pb)) STYRCVSVLTVLHQDWLNGKEYKCKVSNKALPAPIEKTISKAKGQPREPQVYTLPPSREEMTKNQVSLTCLVKGFYPSDIAVEWESNGQPENNYKTTPPVLDSDGSFFLYSKLTVDKSRWQQGNVFSCSVMHEALHNHYTQKSLSLSPGK
